{"source": "patent US20230277625A1", "about": "(SIMCHA IL 18, published 2023)", "binders": {"B1": {"name": "SEQ ID NO: 19 (stabilized human DR-IL-18; SEQ ID NO: 89 plus C38S/C68D) (ligand)", "chain": "YFGKLESKLSVIRNLNDQVLFIDQGNRPLFEDMTDSDSRDNAPRTIFIISKYSDSLARGLAVTISVKDEKISTLSCENKIISFKEMNPPDNIKDTKSDIIFFQRDVPGHSRKMQFESSSYEGYFLACEKERDLFKLILKKEDELGDRSIMFTVQNED"}, "B2": {"name": "SEQ ID NO: 88 (second generation human DR-IL-18 variant 6-20) (ligand)", "chain": "YFGKLESKLSVIRNLNDQVLFIDQGNRPLFEDMTDSDCRDNAPRTIFIISKYGDSRPRGMAVTISVKCEKISTLSCENKIISFKEMNPPDNIKDTKSDIIFFQRAVPGHNRKMQFESSSYEGYFLACEKERDLFKLILKKEDELGDRSIMFTVQNED", "notes": "Engineered variant"}, "B3": {"name": "Human IL-18BP (amino acids 31-194), biotinylated (receptor)", "chain": "TPVSQTTTAATASVRSTKDPCPSQPPVFPAAKQCPALEVTWPEVEVPLNGTLSLSCVACSRFPNFSILYWLGNGSFIEHLPGRLWEGSTSRERGSTGTQLCKALVLEQLTPALHSTNFSCVLVDPEQVVQRHVVLAQLWAGLRATLPPTQEALPSSHSSPQQQGGLNDIFEAQKIEWHEHHHHHH", "modifications": "biotin on the AviTag (BirA ligase) where used biotinylated", "notes": "Soluble decoy receptor; also called hIL-18BP; recombinant IL-18BP"}}, "key": {"[1]": {"target": "T1, IL-18 receptor (IL-18Rα / IL-18Rβ heterodimer) on HEK-Blue IL-18 reporter cells (UniProt Q13478 19-541; O95256 20-599, limits assumed)", "T1 sequence (looked up) 1": "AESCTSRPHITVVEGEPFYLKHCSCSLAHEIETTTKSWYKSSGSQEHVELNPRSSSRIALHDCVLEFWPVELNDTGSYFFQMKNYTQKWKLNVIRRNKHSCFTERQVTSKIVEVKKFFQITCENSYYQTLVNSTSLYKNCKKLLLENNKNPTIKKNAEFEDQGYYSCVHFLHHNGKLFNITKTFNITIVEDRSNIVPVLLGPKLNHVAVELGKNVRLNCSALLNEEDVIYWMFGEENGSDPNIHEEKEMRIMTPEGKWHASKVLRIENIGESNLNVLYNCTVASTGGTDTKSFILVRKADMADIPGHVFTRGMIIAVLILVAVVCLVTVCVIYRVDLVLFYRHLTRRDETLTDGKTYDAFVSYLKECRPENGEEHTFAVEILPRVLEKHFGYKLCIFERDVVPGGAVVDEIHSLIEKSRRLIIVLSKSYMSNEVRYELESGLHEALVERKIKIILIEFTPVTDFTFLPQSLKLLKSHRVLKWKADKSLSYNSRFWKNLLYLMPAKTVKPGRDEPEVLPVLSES", "T1 sequence (looked up) 2": "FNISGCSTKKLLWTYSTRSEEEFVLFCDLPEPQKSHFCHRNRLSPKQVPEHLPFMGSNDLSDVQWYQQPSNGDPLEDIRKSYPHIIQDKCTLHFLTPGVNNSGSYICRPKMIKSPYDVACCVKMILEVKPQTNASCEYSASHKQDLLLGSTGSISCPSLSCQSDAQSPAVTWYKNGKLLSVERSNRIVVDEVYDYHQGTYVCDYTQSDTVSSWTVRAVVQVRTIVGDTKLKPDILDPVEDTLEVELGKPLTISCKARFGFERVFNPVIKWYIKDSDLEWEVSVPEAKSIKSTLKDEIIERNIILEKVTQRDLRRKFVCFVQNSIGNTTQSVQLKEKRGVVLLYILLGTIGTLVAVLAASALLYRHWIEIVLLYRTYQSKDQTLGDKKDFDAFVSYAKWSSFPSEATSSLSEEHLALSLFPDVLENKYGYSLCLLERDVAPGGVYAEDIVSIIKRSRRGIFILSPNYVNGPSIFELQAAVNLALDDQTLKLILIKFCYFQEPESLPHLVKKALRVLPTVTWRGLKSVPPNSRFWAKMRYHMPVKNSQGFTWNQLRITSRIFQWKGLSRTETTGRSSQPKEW", "experiment": "cell-based or functional assay"}, "[2]": {"target": "T2, Human IL-18Rα ectodomain (amino acids 19-329), biotinylated (human, UniProt Q13478 19-329, biotin on the AviTag (BirA ligase))", "T2 construct": "range 19-329; Secreted from insect cells (gp67 signal peptide removed); also called hIL-18Rα; hIL18Rα", "T2 sequence": "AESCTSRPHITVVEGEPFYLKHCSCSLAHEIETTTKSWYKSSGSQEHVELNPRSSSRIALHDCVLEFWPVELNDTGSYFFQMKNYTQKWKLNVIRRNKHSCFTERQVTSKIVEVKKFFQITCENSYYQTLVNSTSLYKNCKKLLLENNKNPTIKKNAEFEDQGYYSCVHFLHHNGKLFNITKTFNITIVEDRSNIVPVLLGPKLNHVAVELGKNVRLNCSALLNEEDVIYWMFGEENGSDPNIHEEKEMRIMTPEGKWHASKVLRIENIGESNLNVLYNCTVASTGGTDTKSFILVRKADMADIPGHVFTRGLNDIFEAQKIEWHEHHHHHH", "experiment": "SPR single-cycle kinetics, biotinylated hIL-18Rα on a streptavidin capture chip, IL-18 variant as analyte", "procedure": "(§1) IL-18 receptor affinity. The affinities of human IL-18 and SEQ ID NO: 19 were determined for both human and cynomolgus monkey IL-18Rα and IL-18BP using surface plasmon resonance. Biotinylated receptor proteins were immobilized on a streptavidin capture chip and IL-18 or SEQ ID NO: 19 were applied as the free analyte. […] were used to determine binding. WT hIL-18 and SEQ ID NO: 19 had similar binding affinity for IL-18Rα in this assay (FIG. 37A)."}, "[3]": {"target": "T3, Cynomolgus monkey IL-18Rα, biotinylated (cynomolgus monkey, UniProt A0A2K5V3J9 19-328, biotinylated)", "T3 sequence": "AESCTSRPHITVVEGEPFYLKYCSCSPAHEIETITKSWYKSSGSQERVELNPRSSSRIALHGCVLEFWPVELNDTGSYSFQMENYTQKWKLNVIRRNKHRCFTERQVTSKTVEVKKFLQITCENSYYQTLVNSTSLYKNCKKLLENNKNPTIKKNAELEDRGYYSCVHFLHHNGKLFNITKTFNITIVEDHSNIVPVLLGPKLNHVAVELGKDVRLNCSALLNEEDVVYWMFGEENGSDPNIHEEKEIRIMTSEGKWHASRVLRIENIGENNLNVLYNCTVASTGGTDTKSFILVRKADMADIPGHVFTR", "experiment": "SPR single-cycle kinetics, biotinylated cynomolgus IL-18Rα on a streptavidin capture chip, IL-18 variant as analyte", "procedure": "as §1"}, "[4]": {"target": "B3", "experiment": "on-yeast binding isotherm (flow cytometry)"}, "[5]": {"target": "B3", "experiment": "on-yeast binding isotherm (flow cytometry), drawn summary table, column IL18BP (KD); IL18Rα column reads N.D."}, "[6]": {"target": "T4, Human Interleukin-18 (mature form), wild type (human, UniProt Q14116 37-193)", "T4 sequence": "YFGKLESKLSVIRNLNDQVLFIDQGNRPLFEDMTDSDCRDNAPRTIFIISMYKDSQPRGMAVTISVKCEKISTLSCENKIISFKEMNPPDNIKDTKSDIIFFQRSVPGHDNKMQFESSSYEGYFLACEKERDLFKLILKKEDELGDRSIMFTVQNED", "experiment": "cell-based or functional assay"}, "[7]": {"target": "T4, Human Interleukin-18 (mature form), …", "experiment": "competition on yeast (flow cytometry): hIL-18BP titrated against a fixed 100 nM biotinylated hIL-18Rα on yeast-displayed IL-18", "procedure": "By contrast, IL-18BP effectively neutralizes the IL-18 E42A, K89A and E42A/K89A previously described (Kim et al., 2001, Proc. Natl. Acad. Sci., 98(6):3304-3309) (shown in chart on right) [E42 and K89 of Kim et al. are E6 and K53 of SEQ ID NO: 30, respectively]. Biotinylated IL-18Rα was kept at a fixed concentration of 100 nM for all samples.\nIndividual colonies of IL-18 yeast were grown overnight at 30° C. in SDCAA liquid media and induced in SGCAA liquid media for 1 day at 20° C. IL-18 display levels on yeast were verified by flow cytometry using an anti-cMyc tag antibody (anti-myc-PE; Cell Signaling Technologies). Receptor staining with biotinylated IL-18Rα (with or without IL-18R β) or biotinylated IL-18BP was performed in PBS supplemented with 0.5% BSA and 2 mM EDTA (PBE) on ice. All analysis was performed on a Sony SA3800 flow cytometer."}}}
{"binder": "B1", "values": [{"measurement": "EC50-#1 (M), HEK-Blue reporter", "setting": "[1]", "value": "1.24e-10", "unit": "M"}, {"measurement": "EC50-#2 (M), HEK-Blue reporter", "setting": "[1]", "value": "7.9e-11", "unit": "M"}, {"measurement": "Kd", "setting": "[2]", "value": 18.8, "unit": "nM"}, {"measurement": "Kd", "setting": "[3]", "value": 10.9, "unit": "nM"}]}
{"binder": "B2", "values": [{"measurement": "Kd", "setting": "[4]", "value": 340, "unit": "nM"}, {"measurement": "Kd", "setting": "[5]", "value": 340, "unit": "nM"}]}
{"binder": "B3", "values": [{"measurement": "IC50 of recombinant IL-18BP in the HEK Blue IL-18 signaling assay (hIL-18 fixed at 5 nM)", "setting": "[6]", "value": 3, "unit": "nM"}, {"measurement": "IC50 (read off the curve)", "setting": "[7]", "value": "~20", "unit": "nM"}]}
